Experimental findings from the RNAGym collection of RNA variant scans (doi:10.1073/pnas.2313332121) are described below.

Fewer inactive variants are shown than the library holds. Bounds are passed on as bounds.

B1: TPR 5TU (parent)
chain: GGAUCUUCUCGAUCUAACAAAAAAGACAAAUCUGCCACAAAGCUUGAGAGCAUCUUCGGAUGCAGAGGCGGCAGCCUUCGGUGGCGCGAUAGCGCCAACGUUCUCAACUAUGACACGCAAAACGCGUGCUCCGUUGAAUGGAGUUUAUCAUG

In this series the parent is B1. Put plainly: polymerase ribozyme fitness, log enrichment relative to wild type (log ratio); higher = more active; in vitro selection for triplet polymerase activity. A digest of the protocol: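 Each subunit of a heterodimeric triplet polymerase ribozyme was mutagenized into a library by PCR, transcribed, and subjected to one round of in vitro selection, run in triplicate. Libraries were annealed with a biotinylated primer, the partner subunit and triplets, incubated frozen at −7 °C, and extended constructs were gel-excised, captured on streptavidin beads and recovered by RT-PCR. Input and output libraries were sequenced on Illumina, keeping genotypes with ≥10 input reads and ≥1 read per output. Fitness is log base 2 of genotype enrichment divided by wild-type enrichment, from inverse-variance-weighted replicate averages.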
In the case of A40G C54G G74A G83C C105G, the “polymerase ribozyme fitness (log ratio)” value is at most -4.2.
As to A41C U82A C125A, the “polymerase ribozyme fitness (log ratio)” value is -0.821.
Regarding A39U U55G G81U C103A, the “polymerase ribozyme fitness (log ratio)” value is at most -4.2.
In the case of A39U C99U U146G, the “polymerase ribozyme fitness (log ratio)” value is -2.56.
As for A40U C93A U148A, the “polymerase ribozyme fitness (log ratio)” value is at most -4.2.
For the variant A40U C87G G133U, the “polymerase ribozyme fitness (log ratio)” value is at most -4.2.
For the variant C38U G67A C69G G94A, the “polymerase ribozyme fitness (log ratio)” value is at most -4.2.
A40C G92U U135G: the “polymerase ribozyme fitness (log ratio)” value was -2.96.
Next, A41C A49G C51A G71U C93A C95U U111G: at most -4.2; C38U G59C C95U A98U C103G U148G: at most -4.2.
For the variant A41C G92U C103U C123G, the “polymerase ribozyme fitness (log ratio)” value was -1.2.
Next, A41C C87U A142G: -1.45; A40U G152A: -2.57.
Take A39U G80U: the “polymerase ribozyme fitness (log ratio)” value is -3.44.
In the case of A40U G86U, the “polymerase ribozyme fitness (log ratio)” value was -1.77.
With A40U C57A A73U C95U U135G C149G, the “polymerase ribozyme fitness (log ratio)” value was at most -4.2.
Take C38U G81U C108A U139G: the “polymerase ribozyme fitness (log ratio)” value is at most -4.2.
A41C U55C U56A C75A G83C C131A U135C: the “polymerase ribozyme fitness (log ratio)” value is at most -4.2.
As for A41G G86C, the figure is -3.28; as for A40G C85G, -3.63.
As to A41G C93A A147C, the “polymerase ribozyme fitness (log ratio)” value is -1.52.
Regarding A40C A52U C57U G92C C95U C105U A106C U109C A138G, the “polymerase ribozyme fitness (log ratio)” value was at most -4.2.
For the variant A39U C54U C76A A91C U139G, the “polymerase ribozyme fitness (log ratio)” value was at most -4.2.
Turning to C38U G83A C99G, the “polymerase ribozyme fitness (log ratio)” value was -3.15.
Take A39G U145A: the “polymerase ribozyme fitness (log ratio)” value is -1.85.
In the case of A41C G50A A52G A120C, the “polymerase ribozyme fitness (log ratio)” value is -2.96.
As to A39G G46A U56A C93U C108A, the “polymerase ribozyme fitness (log ratio)” value is at most -4.2.
In the case of A40G A98G A113C, the “polymerase ribozyme fitness (log ratio)” value was at most -4.2.
Next, A39U A49U G59C C132U U148A: at most -4.2; A41C G92U U145A A150C: -2.83.
Regarding A40G C95U, the “polymerase ribozyme fitness (log ratio)” value was -2.52.
As for A40C A41C C43U U55G C72U C96U A120U G124C, the “polymerase ribozyme fitness (log ratio)” value is at most -4.2.
As for A41C C76A C85G C99A, the figure is at most -4.2; as for A40G C85A G133U, at most -4.2; as for A40U G58A, 0.274.
A40G A41C: the “polymerase ribozyme fitness (log ratio)” value is -1.36.
As for A40C C85U G124U, the figure is -0.182.
As for C38U G68U G94A, the “polymerase ribozyme fitness (log ratio)” value is at most -4.2.
On to A41C G42U A73U G83U U102G G124C A150G, for which the “polymerase ribozyme fitness (log ratio)” value was at most -4.2.
A40C U55A G86C A115C: the “polymerase ribozyme fitness (log ratio)” value is -3.79.
Take A39U A49G G58A G65A U111G A150G: the “polymerase ribozyme fitness (log ratio)” value is at most -4.2.
Turning to A40G U56A G86A, the “polymerase ribozyme fitness (log ratio)” value was -3.13.
Next, A41C A66U U135A: at most -4.2.
Next, A40C A89U C96U C114U G128C U145G: at most -4.2; A39U G46U A47C A52C C87U A98G U104G C114A C125U: at most -4.2.
Turning to A39G U55A A91C C108A U144C, the “polymerase ribozyme fitness (log ratio)” value was at most -4.2.
Next, A39C A107C G141C: at most -4.2.
Turning to A40C G42C G80U, the “polymerase ribozyme fitness (log ratio)” value is at most -4.2.
As for C38U G86A A89C C95G G112C, the figure is at most -4.2.
For the variant A39C G86A G152U, the “polymerase ribozyme fitness (log ratio)” value is at most -4.2.
As for A40U A41U C57U C108U G143U, the figure is at most -4.2; as for A41C U44G G46C G84C C123G G128A U145A, at most -4.2; as for A40U C54U G70C G117U G128C A137G, at most -4.2.
Consider A41C G81C U82C A97C, for which the “polymerase ribozyme fitness (log ratio)” value was -0.593.
For A40G G58A, the “polymerase ribozyme fitness (log ratio)” value is -0.952.
Turning to A41G G92A C99U G126C C149A, the “polymerase ribozyme fitness (log ratio)” value was at most -4.2.
On to A41C U53A G58A C63U G94A A107G, for which the “polymerase ribozyme fitness (log ratio)” value is at most -4.2.
As to A40C A106U A138G, the “polymerase ribozyme fitness (log ratio)” value was at most -4.2.
In the case of A41G C57U A89U, the “polymerase ribozyme fitness (log ratio)” value is 0.785.
Turning to A40U U90G C118G G133C U148G, the “polymerase ribozyme fitness (log ratio)” value was at most -4.2.
Next, A40G G48A C125A: at most -4.2; A41G G58U G59C: -0.488.
Next, A40G C87U A115G: -3.19; C38U U44C C54U G94A C131U U139A U144C: at most -4.2; C38U U101A C103G A121U U144G: -3.85.
For A39U G86A U102G C103G A106C, the “polymerase ribozyme fitness (log ratio)” value is at most -4.2.
A40U A60U G70C C76U C96A: the “polymerase ribozyme fitness (log ratio)” value was at most -4.2.
In the case of A41G C54A U56G C57U G84U C99G U109C U146C, the “polymerase ribozyme fitness (log ratio)” value was at most -4.2.
On to A39C, for which the “polymerase ribozyme fitness (log ratio)” value is -1.87.
Next, A39G: -1.53; A39U: -1.9.
For the variant C38U U56A C63A G117C A121U, the “polymerase ribozyme fitness (log ratio)” value was found to be 0.398.
With A40C C99U A137U U146A, the “polymerase ribozyme fitness (log ratio)” value was -4.14.
Take A40C A47U C85G A89G U148G: the “polymerase ribozyme fitness (log ratio)” value was at most -4.2.
Take A39G G84A G136U: the “polymerase ribozyme fitness (log ratio)” value is -4.02.
Regarding A40G A49C U53A, the “polymerase ribozyme fitness (log ratio)” value is at most -4.2.
As to A41C G59A C69A G84A A107U A137U, the “polymerase ribozyme fitness (log ratio)” value is at most -4.2.
Regarding A39U A73G, the “polymerase ribozyme fitness (log ratio)” value is -2.4.
On to A41C G50A U55G U56A G65U G68A U102A G140U, for which the “polymerase ribozyme fitness (log ratio)” value is at most -4.2.
As to A41G A60U A121C U144A, the “polymerase ribozyme fitness (log ratio)” value is -1.13.
Regarding A40C C51G U61A C95G, the “polymerase ribozyme fitness (log ratio)” value is at most -4.2.
On to A41C A91G G141U, for which the “polymerase ribozyme fitness (log ratio)” value was -2.56.
Regarding A40C G50A A91G A147C U151A, the “polymerase ribozyme fitness (log ratio)” value was at most -4.2.
